Measurements published in patent US20240287172A1 (SCIRHOM, published 2024).
Where a chain is given by its changes, count along the chain named.

T1: miR2-FL-WT-FLAG (mouse, UniProt Q80WQ6 1-827)
T1 construct: on MEF-DKO cells
T1 sequence: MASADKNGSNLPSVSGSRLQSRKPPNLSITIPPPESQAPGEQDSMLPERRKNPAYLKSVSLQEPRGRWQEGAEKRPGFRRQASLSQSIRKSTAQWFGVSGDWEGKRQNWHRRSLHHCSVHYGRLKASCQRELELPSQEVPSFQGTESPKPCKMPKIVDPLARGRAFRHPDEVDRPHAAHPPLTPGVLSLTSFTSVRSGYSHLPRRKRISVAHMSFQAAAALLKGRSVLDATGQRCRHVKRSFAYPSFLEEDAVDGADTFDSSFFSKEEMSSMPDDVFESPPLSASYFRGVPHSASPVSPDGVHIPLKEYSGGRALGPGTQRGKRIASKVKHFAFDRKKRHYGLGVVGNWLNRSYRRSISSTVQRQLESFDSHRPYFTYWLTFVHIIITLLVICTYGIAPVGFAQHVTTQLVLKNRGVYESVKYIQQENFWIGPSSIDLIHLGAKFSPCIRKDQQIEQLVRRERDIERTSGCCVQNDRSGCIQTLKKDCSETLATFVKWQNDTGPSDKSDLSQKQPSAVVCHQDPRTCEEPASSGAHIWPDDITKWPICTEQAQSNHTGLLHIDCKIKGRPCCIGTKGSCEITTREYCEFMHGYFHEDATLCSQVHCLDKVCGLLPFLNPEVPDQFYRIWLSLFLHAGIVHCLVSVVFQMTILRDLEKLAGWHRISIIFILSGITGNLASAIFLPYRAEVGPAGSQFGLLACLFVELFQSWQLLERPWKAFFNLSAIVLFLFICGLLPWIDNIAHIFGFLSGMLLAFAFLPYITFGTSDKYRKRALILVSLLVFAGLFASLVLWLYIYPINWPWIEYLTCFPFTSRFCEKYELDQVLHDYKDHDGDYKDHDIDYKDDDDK

T2: human iRhom2, endogenously expressed (human, UniProt Q6PJF5 1-856)
T2 sequence: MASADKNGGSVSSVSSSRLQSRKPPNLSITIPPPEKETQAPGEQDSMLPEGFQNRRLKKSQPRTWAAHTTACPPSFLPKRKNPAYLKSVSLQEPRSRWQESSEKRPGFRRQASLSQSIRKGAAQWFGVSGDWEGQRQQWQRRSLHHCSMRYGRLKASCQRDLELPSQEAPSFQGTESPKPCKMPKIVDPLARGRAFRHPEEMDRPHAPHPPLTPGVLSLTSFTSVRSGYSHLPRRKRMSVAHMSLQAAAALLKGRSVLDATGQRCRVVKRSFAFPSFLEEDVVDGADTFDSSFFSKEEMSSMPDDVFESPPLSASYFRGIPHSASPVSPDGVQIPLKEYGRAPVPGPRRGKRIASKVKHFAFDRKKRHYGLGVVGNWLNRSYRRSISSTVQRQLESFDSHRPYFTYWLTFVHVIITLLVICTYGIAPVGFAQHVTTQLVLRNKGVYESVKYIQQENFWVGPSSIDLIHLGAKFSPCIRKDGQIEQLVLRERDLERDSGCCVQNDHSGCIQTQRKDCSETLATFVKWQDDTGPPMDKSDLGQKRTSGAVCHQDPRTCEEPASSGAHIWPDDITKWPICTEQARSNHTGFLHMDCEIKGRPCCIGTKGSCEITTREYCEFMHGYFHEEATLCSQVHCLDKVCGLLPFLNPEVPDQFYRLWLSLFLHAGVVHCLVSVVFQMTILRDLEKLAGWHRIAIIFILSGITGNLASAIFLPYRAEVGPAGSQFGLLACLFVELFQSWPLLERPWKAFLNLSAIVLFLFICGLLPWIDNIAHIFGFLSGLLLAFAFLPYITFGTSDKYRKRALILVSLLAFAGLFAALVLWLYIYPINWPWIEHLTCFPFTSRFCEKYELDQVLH

B1: antibody 5 (antibody, V domains shown)
VH: QVTLKESGPGILQPSQTLSLTCSFSGFSLSTFGMGVGWIRQPSGKGLEWLAHIWWDDEKYYNSALKSRLTISKATSKNQAFLKIANVDTADTATYYCARISNYGSNYWYFNVWGTGTTVTVSS
VL: QVVLTQSPALMSASPGEKVTMTCSAGSSVSCMYWYQQKPGSSPRVLIYDTSNLASGVPARFTGSGSGTSYSLTISRMEAEDAASYYCQQWNSYPLTFGAGTKLELK
notes: mouse IgG, kappa light chain; also called clone #5; purified antibody 5
B2: antibody 42 (antibody, V domains shown)
VH: B1 VH with F24L, M34R, S63P, A74D, A80V, K83R, S101Q, N111D
VL: LIVLTQSPAIMSASPGEKVTMTCGATSRISYMFWYQQKPGSSPRVLIYDTSNLASGVPVRFSGSGSGTSYSLTISRVEAEDVATYYCQQWNSYPLTFGAGTKLELK
notes: mouse IgG, kappa light chain; also called clone #42; purified antibody 42
B3: antibody 22 (antibody, V domains shown)
VH: B1 VH with A80V
VL: B1 VL with C31Y, S84T
notes: mouse IgG, kappa light chain; also called clone #22; purified antibody 22
B4: antibody 16 (antibody, V domains shown)
VH: QVTLKESGPGILQPSQTLSLTCSFSGFSLSTFALGVGWIRQPSGRGLEWLAHIWWDDDKYYNPALKSRLTISKDTSKNHVFLKIANVDTADTATYYCARITTYYYGMDYWGQGTSVTVSS
VL: DIVLSQSPATLSVTPGDSVSLFCRASQSIGNHLHWYQQESHASPRLLIKYASQSISGIPSRFSGSGSGTDFTLSINSVETEDFGMYFCQQSYNWPLTFGAGTKLELK
notes: mouse IgG, kappa light chain; also called clone #16; purified antibody 16
B5: antibody 3 (antibody, V domains shown)
VH: QVTLKESGPGILQPSQTLSLTCSFSGFSLTTFAMGIGWVRQPSGKGLEWLAHIWWDGEKYNNPVLKSRLTISKDTSKNQVFLRIANVDTPDTATYYCARISSIYYIIDNWGQGTSVTVSS
VL: B4 VL with S5T, D17H, F22S, G30S, H32N, Q38K, E39K, A42E, A51V
notes: mouse IgG, kappa light chain; also called clone #3; purified antibody 3
B6: antibody 48 (antibody, V domains shown)
VH: QVQLQQSGTELVRPGTSVKVSCKASGYAFTNYLIEWVKQRPGQGLEWIGVINPGSGFTKYNEKFKGKATLTADKSSSTVYMHLSSLTSEDSAVYFCARGLYRAMDYWGQGTSVTVSS
VL: DIQMTQSPASQSASLGESVTITCLASQTIATWLAWYQQKPGKSPQLLIYGATTLADGVPSRFSGGGSGTKFSFKISSLQAEDFVSYYCQQLYSTPYTFGGGTKLEIK
notes: mouse IgG, kappa light chain; also called clone #48; purified antibody 48
B7: antibody 47 (antibody, V domains shown)
VH: B6 VH with T9A, K59N, T69I, T71N, V79A, H82Q, S84I, G99D, Y101K, Y106H
VL: B6 VL with A30G, Y49H, G50A, T53S, G65S, L91I, T94S
notes: mouse IgG, kappa light chain; also called clone #47
B8: antibody 50 (antibody, V domains shown)
VH: B6 VH with T9A, T16A, T30S, V79A, H82Q
VL: B6 VL with A30G, G50A, T52A, T53S, S85N, L91I
notes: mouse IgG, kappa light chain; also called clone #50; purified antibody 50
B9: antibody 51 (antibody, V domains shown)
VH: QVQLQQSGAELVKPGASVKISCKASGYTFSNYWMNWVKQRPGKGLEWIGQIYPGDGDTKYNGKFKNKATLTADKSSSTAYMQFSSLTSEDSAVYFCARGDLVFVYWGLGTLVTVSA
VL: DVQITQSPSYLAVSPGETITINCRASKNIRKYLAWYQEKPGKTNKLLIYSGSTSQSGVPSRFSGSGSGTDFTLTISSLEPEDFAMYYCQQHNEYPYTFGGGTKLEIK
notes: mouse IgG, kappa light chain; also called clone #51

Key:
[1] = molecular target: T1, miR2-FL-WT-FLAG; experiment: FACS, MEF-DKO-miR2-FL-WT-FLAG cells
Procedure: In brief, immortalized MEF-DKO-EV control cells, MEF-DKO-hiR2-FL-WT-FLAG cells and MEF-DKO-miR2-FL-WT-FLAG cells were harvested with 10 mM EDTA in PBS, washed and resuspended in FACS buffer (PBS, 3% FBS, 0.05% sodium azide), and seeded in Nunc U-bottom 96-well plates (Thermo Fisher Scientific, USA) at approximately 3×10⁵ cells per well. To pellet cells and remove supernatants, the plates were centrifuged at 1,500 rpm and 4° C. for 3 minutes. For primary staining, cells were resuspended in 100 μl per well of either FACS buffer alone (controls), mouse monoclonal anti-FLAG IgG (Sigma-Aldrich, USA) at 3 μg/ml FACS buffer or the antibodies of the invention also at 3 μg/ml FACS buffer and incubated on ice for 1 hour. Afterwards, plates were centrifuged at 1,500 rpm and 4° C. for 3 minutes and washed twice with 200 μl per well of FACS buffer. For secondary staining, cells were spun down and resuspended in 100 μl per well of PE-conjugated goat anti-mouse IgG F(ab′)2 detection fragment (Dianova, Germany) diluted 1:100 in FACS buffer. Protected from light, the cell suspensions were incubated on ice for 1 hour. Plates were then centrifuged at 1,500 rpm and 4° C. for 3 minutes and washed three times with 200 μl per well of FACS buffer. Finally, cells were resuspended in 150 μl per well of FACS buffer and analyzed using a BD Accuri™ C6 Plus flow cytometer (Becton Dickinson, Germany).

[2] = molecular target: T2, human iRhom2, endogenously expressed; experiment: cell-based or functional assay

Row | Binder | binding result [1] | LPS-induced TNFα release from THP-1 cells, percent inhibition, 10 µg/ml, hybridoma-purified [2] | LPS-induced TNFα release from THP-1 cells, percent inhibition, recombinant antibody [2] | PMA-induced IL-6R release from THP-1 cells, percent inhibition, 1 µg/ml [2] | PMA-induced IL-6R release from U-937 cells, percent inhibition, 1 µg/ml [2] | PMA-induced TNFα release from U-937 cells, percent inhibition, 1 µg/ml [2] | LPS-induced TNFα release from PBMCs of healthy donors, percent inhibition, 1 µg/ml [2] | LPS-induced TNFα release from human macrophages of healthy donors, percent inhibition, 10 µg/ml [2] | PMA-induced HB-EGF release from PBMCs of healthy donors, percent inhibition, 1 µg/ml [2] | PMA-induced HB-EGF release from THP-1 cells, percent inhibition, 3 µg/ml [2] | PMA-induced HB-EGF release from U-937 cells, percent inhibition [2] | PMA-induced IL-6R release from PBMCs of healthy donors, percent inhibition, 1 µg/ml [2] | PMA-induced IL-6R release from U-937 cells, percent inhibition, 3 µg/ml [2] | PMA-induced TGFα release from PC3 cells, percent inhibition, 1 µg/ml [2] | PMA-induced TNFα release from U-937 cells, percent inhibition, 3 µg/ml [2]
1 | B1 | no binding (tested: 3 µg/ml) | 69% | 70.5% | 64.1% | 67% | 63.6% |  |  |  |  |  |  |  |  | 
2 | B2 | no binding (tested: 3 µg/ml) | 76.7% | 75.9% | 85.9% | 80.8% | 94.5% | 77% | 93.2% | 77.6% | 76.6% | 104% | 85% | 84.4% | 14.3% | 94.1%
3 | B3 | no binding (tested: 3 µg/ml) | 78.8% | 78.4% | 67.4% | 74.5% | 86.1% | 72.8% | 78.8% | 56.5% | 77.7% | 101% | 79.3% | 79% | 12.7% | 93.1%
4 | B4 | no binding (tested: 3 µg/ml) | 65.4% | 70.7% | 72.5% | 77.7% | 91.6% | 81.3% | 85.8% | 71.6% | 71.9% | 99.6% | 84.3% | 77.4% | 13.9% | 91.9%
5 | B5 |  | 71.2% | 59.9% | 46.7% | 61.8% | 65.9% |  |  |  |  |  |  |  |  | 
6 | B6 | no binding (tested: 3 µg/ml) |  |  |  |  |  |  |  |  |  |  |  |  |  | 
7 | B7 | no binding (tested: 3 µg/ml) |  |  |  |  |  |  |  |  |  |  |  |  |  | 
8 | B8 | no binding (tested: 3 µg/ml) |  |  |  |  |  |  |  |  |  |  |  |  |  | 
9 | B9 | no binding (tested: 3 µg/ml) |  |  |  |  |  |  |  |  |  |  |  |  |  | 
